The experiment has as its target T1, human KDR-Fc fusion (R&D Systems #357-KD-050) (human, UniProt P35968 20-764).
T1 construct: bought
Briefly: phage binding screen on KDR-Fc; class legend in paragraph 246.

T1 sequence (P35968 20-764): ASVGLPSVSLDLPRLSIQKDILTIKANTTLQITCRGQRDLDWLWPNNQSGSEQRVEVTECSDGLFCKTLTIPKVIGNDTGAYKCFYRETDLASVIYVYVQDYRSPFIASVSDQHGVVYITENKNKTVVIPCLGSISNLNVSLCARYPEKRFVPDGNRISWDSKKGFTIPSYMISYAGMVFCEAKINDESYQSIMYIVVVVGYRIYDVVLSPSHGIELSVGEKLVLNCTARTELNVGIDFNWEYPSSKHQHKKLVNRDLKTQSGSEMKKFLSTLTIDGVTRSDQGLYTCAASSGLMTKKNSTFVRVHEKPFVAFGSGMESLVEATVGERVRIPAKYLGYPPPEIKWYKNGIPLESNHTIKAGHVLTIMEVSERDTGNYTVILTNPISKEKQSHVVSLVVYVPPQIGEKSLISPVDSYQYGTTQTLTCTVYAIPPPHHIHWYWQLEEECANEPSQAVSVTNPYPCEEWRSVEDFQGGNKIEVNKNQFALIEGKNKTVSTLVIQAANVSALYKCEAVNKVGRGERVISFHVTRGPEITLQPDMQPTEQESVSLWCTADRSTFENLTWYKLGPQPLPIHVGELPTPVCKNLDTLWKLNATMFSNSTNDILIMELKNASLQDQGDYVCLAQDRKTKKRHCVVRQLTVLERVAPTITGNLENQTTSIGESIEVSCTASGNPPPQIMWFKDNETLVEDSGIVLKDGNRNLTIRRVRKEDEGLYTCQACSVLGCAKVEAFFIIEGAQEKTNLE

B1: phage isolate GITCYSDTGKCFSF (peptide)
peptide: GITCYSDTGKCFSF
Regarding B1, the binding result is “binds”.

B2: phage isolate YVDCYYDTGRCYHQ (peptide)
peptide: YVDCYYDTGRCYHQ
For B2, the binding result is on record as “binds”.

B3: phage isolate TITCWMDTGHCMHE (peptide)
peptide: TITCWMDTGHCMHE
As for B3, the binding result is reported as “binds”.

B4: phage isolate PEWCEVDWYYCWLL (peptide)
peptide: PEWCEVDWYYCWLL
Regarding B4, the binding result is listed as “binds”.

B5: phage isolate GVECYKHSGMCRSW (peptide)
peptide: GVECYKHSGMCRSW
For the molecule B5, the binding result was “binds”.

B6: phage isolate TGNCQEDWYYCWYF (peptide)
peptide: TGNCQEDWYYCWYF
For the molecule B6, the binding result is recorded as “binds”.

B7: phage isolate WYWCHHIGMYCDGF (peptide)
peptide: WYWCHHIGMYCDGF
As for B7, the binding result was “binds”.

B8: phage isolate HYECWYPEGKCYFY (peptide)
peptide: HYECWYPEGKCYFY
For B8, the binding result is reported as “binds”.

B9: phage isolate LVMCISPEGYCYEI (peptide)
peptide: LVMCISPEGYCYEI
As for B9, the binding result is “binds”.

B10: phage isolate WIECYHPDGICYHF (peptide)
peptide: WIECYHPDGICYHF
Regarding B10, the binding result is “binds”.

B11: phage isolate WVQCASDTGKCIMG (peptide)
peptide: WVQCASDTGKCIMG
In the case of B11, the binding result is given as “binds”.

B12: phage isolate KELCEDDWYYCYLM (peptide)
peptide: KELCEDDWYYCYLM
In the case of B12, the binding result is “binds”.

B13: phage isolate WTECHYATGKCHSF (peptide)
peptide: WTECHYATGKCHSF
For the molecule B13, the binding result is on record as “binds”.

B14: phage isolate GINCYPATGKCQMG (peptide)
peptide: GINCYPATGKCQMG
As for B14, the binding result is “binds”.

B15: phage isolate WIECHYKTGHCIHS (peptide)
peptide: WIECHYKTGHCIHS
As for B15, the binding result is recorded as “binds”.

B16: phage isolate HWECYSDTGKCWFF (peptide)
peptide: HWECYSDTGKCWFF
As for B16, the binding result is on record as “binds”.

B17: phage isolate WIICDGNLGWCWEG (peptide)
peptide: WIICDGNLGWCWEG
As to B17, the binding result is recorded as “binds”.

B18: phage isolate PTWCEDDWYYCWLF (peptide)
peptide: PTWCEDDWYYCWLF
For B18, the binding result was “binds”.

B19: phage isolate VWECAKTFPFCHWF (peptide)
peptide: VWECAKTFPFCHWF
Turning to B19, the binding result is “binds”.

B20: phage isolate WVECWWKSGQCYEF (peptide)
peptide: WVECWWKSGQCYEF
Turning to B20, the binding result was “binds”.

B21: phage isolate WVECWWKYGQCYEF (peptide)
peptide: WVECWWKYGQCYEF
On to B21, for which the binding result is “binds”.

B22: phage isolate PNTCETFDLYCWWI (peptide)
peptide: PNTCETFDLYCWWI
In the case of B22, the binding result was “binds”.

B23: phage isolate SKWCEQDWYYCWLL (peptide)
peptide: SKWCEQDWYYCWLL
Take B23: the binding result was “binds”.

B24: phage isolate LIECYAHTGLCFDF (peptide)
peptide: LIECYAHTGLCFDF
On to B24, for which the binding result was “binds”.

B25: phage isolate AVTCWALTGHCVEE (peptide)
peptide: AVTCWALTGHCVEE
Consider B25, for which the binding result is “binds”.

B26: phage isolate WLECYAEFGHCYNF (peptide)
peptide: WLECYAEFGHCYNF
Turning to B26, the binding result is “binds”.

B27: phage isolate WLECYTEFGHCYNF (peptide)
peptide: WLECYTEFGHCYNF
Turning to B27, the binding result is listed as “binds”.

B28: phage isolate WEWCPIDAWECIML (peptide)
peptide: WEWCPIDAWECIML
Consider B28, for which the binding result was “binds”.

B29: phage isolate SDWCRVDWYYCWLM (peptide)
peptide: SDWCRVDWYYCWLM
For B29, the binding result is “binds”.

B30: phage isolate GVWCDMVTGWCYHG (peptide)
peptide: GVWCDMVTGWCYHG
Regarding B30, the binding result is “binds”.

B31: phage isolate PDWCEEDWYYCWIT (peptide)
peptide: PDWCEEDWYYCWIT
Consider B31, for which the binding result was “binds”.

B32: phage isolate PDWCAADWYYCYIT (peptide)
peptide: PDWCAADWYYCYIT
Turning to B32, the binding result was “binds”.

B33: phage isolate WVECFMDTGACYTF (peptide)
peptide: WVECFMDTGACYTF
Turning to B33, the binding result was “binds”.

B34: phage isolate SVECFMDTGACYTF (peptide)
peptide: SVECFMDTGACYTF
In the case of B34, the binding result is reported as “binds”.

B35: phage isolate WIQCDMETGLCTHG (peptide)
peptide: WIQCDMETGLCTHG
Take B35: the binding result is “binds”.

B36: phage isolate GITCYSATGKCQMW (peptide)
peptide: GITCYSATGKCQMW
On to B36, for which the binding result was “binds”.

B37: phage isolate WIQCDRKAGRCSRG (peptide)
peptide: WIQCDRKAGRCSRG
Consider B37, for which the binding result is reported as “binds”.

B38: phage isolate ANWCEEDWYYCFIT (peptide)
peptide: ANWCEEDWYYCFIT
For the molecule B38, the binding result is recorded as “binds”.

B39: phage isolate ANWCEEDWYYCWIT (peptide)
peptide: ANWCEEDWYYCWIT
Take B39: the binding result is “binds”.

B40: phage isolate ANWCEEDWYYCYIT (peptide)
peptide: ANWCEEDWYYCYIT
For B40, the binding result is listed as “binds”.

B41: phage isolate VNWCEEDWYYCWIT (peptide)
peptide: VNWCEEDWYYCWIT
With B41, the binding result is recorded as “binds”.

B42: phage isolate SNWCEEDWYYCYIT (peptide)
peptide: SNWCEEDWYYCYIT
B42: the binding result was “binds”.

B43: phage isolate RNWCEEDWYYCFIT (peptide)
peptide: RNWCEEDWYYCFIT
For B43, the binding result is on record as “binds”.

B44: phage isolate WIQCNSITGHCTSG (peptide)
peptide: WIQCNSITGHCTSG
B44: the binding result is “binds”.

B45: phage isolate DFNCKMIDGFCLLK (peptide)
peptide: DFNCKMIDGFCLLK
With B45, the binding result was “binds”.

B46: phage isolate LNICKEDWYYCFLL (peptide)
peptide: LNICKEDWYYCFLL
Consider B46, for which the binding result is listed as “binds”.

B47: phage isolate HWWCAFQPQECEYW (peptide)
peptide: HWWCAFQPQECEYW
On to B47, for which the binding result is “binds”.

The record behind these values is EP2014310A2 (Dyax Corporation, dated 2009).
